# Source: US20070042954A1
# Target: bact sCRFR2α (mouse soluble CRF receptor type 2α, amino acids 20-143, purified from E. coli) (mouse)
# Test: radioreceptor assay, displacement of [125I-DTyr0]-astressin from purified sCRFR2α
substance,measurement,value
Astressin (peptide),Ki,10 nM
